US20190092846A1 (Novartis, published 2019)

T1: human TGF-β3 (human, UniProt P10600 301-412)
T1 sequence: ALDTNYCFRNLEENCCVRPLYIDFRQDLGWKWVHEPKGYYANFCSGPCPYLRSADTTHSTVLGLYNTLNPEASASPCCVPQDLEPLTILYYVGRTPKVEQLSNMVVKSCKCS

T2: mouse recombinant TGF-β2 (mouse, UniProt P27090 303-414)
T2 sequence (looked up): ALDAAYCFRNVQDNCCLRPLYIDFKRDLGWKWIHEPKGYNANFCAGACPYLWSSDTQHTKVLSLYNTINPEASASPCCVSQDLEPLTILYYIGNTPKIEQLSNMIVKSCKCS

T3: human recombinant TGF-β2 (human, UniProt P09858 303-414 (pig entry))
T3 sequence: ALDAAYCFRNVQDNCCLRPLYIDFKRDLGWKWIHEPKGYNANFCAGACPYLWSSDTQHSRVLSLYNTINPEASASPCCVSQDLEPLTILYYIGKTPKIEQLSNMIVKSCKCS

T4: human TGFβ-2 (residues 303-414, SEQ ID NO: 122) (human, UniProt P61812 303-414)
T4 construct: Construct of the crystal structure with the MOR14797 Fab; also called TGFβ-2 dimer (chains A and B)
T4 sequence: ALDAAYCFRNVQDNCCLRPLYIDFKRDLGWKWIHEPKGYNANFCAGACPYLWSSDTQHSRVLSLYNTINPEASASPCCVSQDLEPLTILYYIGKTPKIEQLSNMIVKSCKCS


Assays:
human TGF-β3 [1] = biological target: T1, human TGF-β3; assay: cell-based or functional assay
mouse recombinant TGF-β2 [2] = biological target: T2, mouse recombinant TGF-β2; assay: cell-based or functional assay
human TGF-β1 [3] = biological target: T5, human TGF-β1 (human, UniProt P01137 279-390); assay: cell-based or functional assay
human recombinant TGF-β2 [4] = biological target: T3, human recombinant TGF-β2; assay: cell-based or functional assay
human TGF-β1 [5] = biological target: T5, human TGF-β1; assay: not named in the sentence (it points to Table 4)
human TGF-β3 [6] = biological target: T1, human TGF-β3; assay: BiaCORE (surface plasmon resonance)
mouse recombinant TGF-β2 [7] = biological target: T2, mouse recombinant TGF-β2; assay: BiaCORE (surface plasmon resonance)
human recombinant TGF-β2 [8] = biological target: T3, human recombinant TGF-β2; assay: ratio of the KD values of Table 4
human recombinant TGF-β2 [9] = biological target: T3, human recombinant TGF-β2; assay: BiaCORE (surface plasmon resonance)
human recombinant TGF-β2 [10] = biological target: T3, human recombinant TGF-β2; assay: ratio with the conservative KD of 100 fM
human recombinant TGF-β2 [11] = biological target: T3, human recombinant TGF-β2; assay: conservative reading of the KD value of Table 4
[12] = biological target: T4, human TGFβ-2 (residues 303-414, SEQ ID …); assay: X-ray crystal structure of the complex
Method: As detailed below, the individual components of the complex were produced using separate expression systems and were combined to generate the purified complex. X-ray crystallography was then employed to generate diffraction data for TGFβ-2 bound to the MOR14797 Fab, elucidating the antigen-binding site.
The TGFβ-2-MOR14797 complex was concentrated to 20 mg/ml, followed by centrifugation at 20,000×g for 10 min prior to dispensing crystallization screens. Crystals were grown at 20° C. using a sitting drop vapor diffusion setup. 0.1 μl of the TGFβ-2-MOR14797 complex was mixed with 0.1 μl of a reservoir solution containing 0.1 M HEPES (pH 7.5) and 70% (v/v) MPD, and the drop was equilibrated against 45 μl of the reservoir solution. Crystals were flash-cooled directly in liquid nitrogen and were sent to the Advanced Photon Source (Argonne National Laboratory, USA) for collection of diffraction data at beamline 17-ID. Datasets were processed using autoPROC (version 1.1.6, Global Phasing Ltd.) to a resolution of 2.4 Å in space group P2₁2₁2₁ with cell dimensions a=77.2 Å, b=122.1 Å, c=130.1 Å, α=90°, β=90°, and γ=90°. […] The Rwork and Rfree values are 17.5% and 23.0%, respectively. The RMSD values for the bond lengths and angles were 0.008 Å and 1.054°.

human recombinant TGF-β2 [13] = biological target: T3, human recombinant TGF-β2; assay: conservative reading of the KD value of Table 4; conservative interpretation of the Table 4 KD, not a new measurement
human TGF-β1 [14] = biological target: T5, human TGF-β1; assay: cell-based or functional assay; remark: listed apart in the source

T5 sequence (P01137 279-390 limits assumed): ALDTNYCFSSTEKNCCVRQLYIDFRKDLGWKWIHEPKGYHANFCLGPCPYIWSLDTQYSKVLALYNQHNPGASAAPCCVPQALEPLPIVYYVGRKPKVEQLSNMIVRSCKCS

Row | Binder | RGA (CAGA-12 luc/Smad-2/3 RGA; IC 50 [pM]) (human TGF-β3 [1]) | CK (IC 50 [pM]), Skeletal Muscle Cell Differentiation Assay (Creatine Kinase) (mouse recombinant TGF-β2 [2]) | RGA (CAGA-12 luc/Smad-2/3 RGA; IC 50 [pM]) (mouse recombinant TGF-β2 [2]) | RGA (CAGA-12 luc/Smad-2/3 RGA; IC 50 [pM]) (human TGF-β1 [3]) | CK (IC 50 [pM]), Skeletal Muscle Cell Differentiation Assay (Creatine Kinase) (human recombinant TGF-β2 [4]) | RGA (CAGA-12 luc/Smad-2/3 RGA; IC 50 [pM]) (human recombinant TGF-β2 [4]) | binding result (human TGF-β1 [5]) | Kd (human TGF-β3 [6]) | Kd (mouse recombinant TGF-β2 [7]) | fold lower KD for TGFbeta-2 than for TGFbeta-3 (human recombinant TGF-β2 [8]) | Kd (human recombinant TGF-β2 [9]) | fold lower KD for TGFβ2 than for TGFbeta-3 (human recombinant TGF-β2 [10]) | Kd (human recombinant TGF-β2 [11]) | binding result [12] | fold lower KD for TGFβ2 than for TGFbeta 3 (human recombinant TGF-β2 [8]) | Kd (human recombinant TGF-β2 [13]) | fold lower KD for TGFβ2 than for TGFbeta 3 (human recombinant TGF-β2 [10]) | IC50 (read off the curve) (CAGA-12 luciferase reporter gene assay, HEK293T/17) (human TGF-β1 [14])
1 | MOR14797 (antibody, human IgG1, kappa, V domains shown, (no LALA)) VH: QVTLRESGPALVKPTQTLTLTCTFSGFSLSTSGMGVGWIRQPPGKALEWLAHIYWNDDKSYSTSLKTRLTISKDTSKNQVVLTMTNMDPVDTATYYCARDFYYSGYFDSWGQGTLVTVSS VL: DIQMTQSPSSLSASVGDRVTITCRASQDISNYLNWYQQKPGKAPKLLIFGASSLQSGVPSRFSGSGSGTDFTLTISSLQPEDFATYYCQQTNTMNTFGQGTKVEIKR | > 100000 pM | 1500 pM | 329 pM | > 100000 pM | 105 pM | 8.4 pM | no binding | 27.4 nM | 0.633 pM | 6e+06 fold | 0.00446 pM | 270000 fold | ≤ 0.1 pM |  |  |  |  | 
2 | MOR14797 Fab (Fab, V domains shown, also called Fab fragment of MOR14797) VH: QVTLRESGPALVKPTQTLTLTCTFSGFSLSTSGMGVGWIRQPPGKALEWLAHIYWNDDKSYSTSLKTRLTISKDTSKNQVVLTMTNMDPVDTATYYCARDFYYSGYFDSWGQGTLVTVSS VL: DIQMTQSPSSLSASVGDRVTITCRASQDISNYLNWYQQKPGKAPKLLIFGASSLQSGVPSRFSGSGSGTDFTLTISSLQPEDFATYYCQQTNTMNTFGQGTKVEIKR |  |  |  |  |  |  |  |  |  |  |  |  |  | binds |  |  |  | 
3 | MOR14799 (antibody, human IgG1, lambda, V domains shown) VH: QVQLVQSGAEVKKPGESLKISCKGSGYSFTRYYVAWVRQMPGKGLEWMGWIDPGQSNTRYSPSFQGQVTISADKSISTAYLQWSSLKASDTAMYYCARMLAWGWFDYWGQGTLVTVSS VL: SYELTQPLSVSVALGQTARITCSGDNLGGYYAHWYQQKPGQAPVLVIYDKSDRPSGIPERFSGSNSGNTATLTISRAQAGDEADYYCASYDSSLMMVFGGGTKLTVLG | > 100000 pM | 909 pM | 138 pM | > 100000 pM | 1050 pM | 78 pM | no binding | 0.0199 nM | 0.00277 pM |  | 0.00108 pM |  |  |  | > 18000 fold | ≤ 0.1 pM | 200 fold | 
4 | MOR14805 (antibody, human IgG1, lambda, V domains shown) VH: QVQLVQSGAEVKKPGESLKISCKGSGYSFTRYYVAWVRQMPGKGLEWMGWIDPGTSNTRYSPSFQGQVTISADKSISTAYLQWSSLKASDTAMYYCARMLAWGWFDYWGQGTLVTVSS VL: SYELTQPLSVSVALGQTARITCSGDNLGGYYAHWYQQKPGQAPVLVIYDKSDRPSGIPERFSGSNSGNTATLTISRAQAGDEADYYCASYDSSLMMVFGGGTKLTVLG | > 100000 pM | 629 pM | 248 pM | > 100000 pM | 315 pM | 106 pM | no binding | 0.0705 nM |  | 73 fold | 0.97 pM |  |  |  |  |  |  | 
5 | 1D11 (antibody, V domains shown) VH: QVQLQQSGPELVRPGASVKLSCKASGYIFITYWMNWVKQRPGQGLEWIGQIFPASGSTNYNEMFEGKATLTVDTSSSTAYMQLSSLTSEDSAVYYCARGDGNYALDAMDYWGQGTSVTVSS VL: DIVLTQSPASLAVSLGQRATISCRASESVDSYGNSFMHWYQQKSGQPPKLLIYLASNLESGVPARFSGSGSRTDFTLTIDPVEADDAATYYCQQNNEDPLTFGAGTKLEIK | 32 pM |  |  | 108 pM |  | 4370 pM |  | 0.02 nM |  |  | 117 pM |  |  |  | 17 fold |  |  | ~0.5 nM

Further lines, results first:

Row | RGA (CAGA-12 luc/Smad-2/3 RGA; IC 50 [pM]) (human TGF-β3 [1]) | CK (IC 50 [pM]), Skeletal Muscle Cell Differentiation Assay (Creatine Kinase) (mouse recombinant TGF-β2 [2]) | RGA (CAGA-12 luc/Smad-2/3 RGA; IC 50 [pM]) (mouse recombinant TGF-β2 [2]) | RGA (CAGA-12 luc/Smad-2/3 RGA; IC 50 [pM]) (human TGF-β1 [3]) | CK (IC 50 [pM]), Skeletal Muscle Cell Differentiation Assay (Creatine Kinase) (human recombinant TGF-β2 [4]) | RGA (CAGA-12 luc/Smad-2/3 RGA; IC 50 [pM]) (human recombinant TGF-β2 [4]) | binding result (human TGF-β1 [5]) | Kd (human TGF-β3 [6]) | Kd (mouse recombinant TGF-β2 [7]) | fold lower KD for TGFbeta-2 than for TGFbeta-3 (human recombinant TGF-β2 [8]) | Kd (human recombinant TGF-β2 [9]) | fold lower KD for TGFβ2 than for TGFbeta-3 (human recombinant TGF-β2 [10]) | Kd (human recombinant TGF-β2 [11]) | binding result [12] | fold lower KD for TGFβ2 than for TGFbeta 3 (human recombinant TGF-β2 [8]) | Kd (human recombinant TGF-β2 [13]) | fold lower KD for TGFβ2 than for TGFbeta 3 (human recombinant TGF-β2 [10]) | IC50 (read off the curve) (CAGA-12 luciferase reporter gene assay, HEK293T/17) (human TGF-β1 [14]) | Binder
6 | > 100000 pM | 3000 pM | > 100000 pM | > 100000 pM | 366 pM | 2.8 pM | no binding | > 1000 nM | 1.89 pM |  |  |  |  |  |  |  |  |  | MOR14787 (antibody, human IgG1, kappa, V domains shown) VH: QVQLVQSGAEVKKPGSSVKVSCKASGGTFSSYAISWVRQAPGQGLEWMGVIVPKWGHPQYAQKFQGRVTITADESTSTAYMELSSLRSEDTAVYYCAREGDFVVLVLTEHYMGGFDVWGQGTLVTVSS VL: DIQMTQSPSSLSASVGDRVTITCRASQSIDEYLNWYQQKPGKAPKLLIYAGSNLQSGVPSRFSGSGSGTDFTLTISSLQPEDFATYYCLQGYSYPRTFGQGTKVEIKR
7 | > 100000 pM | 1200 pM | 123 pM | > 100000 pM | 491 pM | 29 pM | no binding | > 1000 nM | 0.00109 pM |  |  |  | ≤ 0.1 pM |  |  |  |  |  | MOR14800 (antibody, human IgG1, lambda, V domains shown) VH: QVQLVQSGAEVKKPGESLKISCKGSGYSFTRYYVAWVRQMPGKGLEWMGWIDPGQSNTRYSPSFQGQVTISADKSISTAYLQWSSLKASDTAMYYCARMLAWGWFDYWGQGTLVTVSS VL: SYELTQPLSVSVALGQTARITCSGDNLGGYYAHWYQQKPGQAPVLVIYDTSDRPSGIPERFSGSNSGNTATLTISRAQAGDEADYYCASYDSSLMMVFGGGTKLTVLG
8 | > 100000 pM | 800 pM | 598 pM | > 100000 pM | 220 pM | 94 pM | no binding | > 1000 nM | 0.00236 pM |  | 0.0524 pM |  | ≤ 0.1 pM |  |  |  |  |  | MOR14809 (antibody, human IgG1, lambda, V domains shown) VH: QVQLVQSGAEVKKPGESLKISCKGSGYSFTRYWIAWVRQMPGKGLEWMGIIDPGTSDTRYSPSFQGQVTISADKSISTAYLQWSSLKASDTAMYYCARIDKSLILHSAFDYWGQGTLVTVSS VL: SYELTQPLSVSVALGQTARITCSGDNLGGYYAYWYQQKPGQAPVLVIYETNNRPSGIPERFSGSNSGNTATLTISRAQAGDEADYYCASTTQDYLVFVFGGGTKLTVLG
